± gives the standard deviation of the averaged measurements.
What follows are sequences tested on ATP (assay: switch fluorescence ratio, 500 uM ATP over buffer (Cy3 cluster intensity, sum of 5 cycles each) (fold (ratio)); higher = stronger signal-on switching upon ATP binding; sequences stand for … in TCGTCGGCAGCGTCAGATGTGTATAAGAGACAGTTTTTTTTTTTTTTTTTTTTTTTTT…TC). Settings: aptamer strand: ATP DNA aptamer (quencher-CACCTGGGGGAGTATTGCGGAGGAAGG + anchor), 100 nM annealed; ATP concentration: 500 uM.
Outline: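 Switching-strand clusters labelled with Cy3 on a modified Illumina MiSeq flow-cell were annealed to 100 nM quencher-labelled ATP aptamer, imaged in selection buffer, and re-imaged after 15 min with 500 uM ATP at 22 °C. This was done over five cycles with NaOH stripping and re-annealing in between. The fluorescence ratio is summed target-cycle over summed buffer-cycle Cy3 intensity per cluster, averaged per switch-domain sequence, excluding clusters outside 100-1000 RFU.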
CGTGGGGTGT gave a switch fluorescence ratio of 1.01 ± 0.039.
In the case of TTTACGGGAT, the switch fluorescence ratio is reported as 1.06 ± 0.036.
CGGAGTTATG gave a switch fluorescence ratio of 1.09 ± 0.04.
For TTTTAGTTAT, the switch fluorescence ratio was 1.04 ± 0.037.
Sequence CACACGTTTT has a switch fluorescence ratio of 1.02 ± 0.013.
GCTTCGGGCC showed a switch fluorescence ratio of 0.991 ± 0.015.
TGGTTTCTTG showed a switch fluorescence ratio of 0.963 ± 0.042.
In the case of AACATTCCTT, the switch fluorescence ratio is reported as 1.23 ± 0.08.
TACTGAATGG was tested, and the switch fluorescence ratio was 0.997 ± 0.0051.
Work on GTGGATTAGA yielded a switch fluorescence ratio of 0.9767 ± 0.0056.
In the case of TATGGTGTTC, the switch fluorescence ratio is reported as 0.981 ± 0.015.
TGAGTCAGTG showed a switch fluorescence ratio of 1.0116 ± 0.00046.
ATTCATATTG was tested, and the switch fluorescence ratio was 1.01 ± 0.042.
TGGTTGGAAG was tested, and the switch fluorescence ratio was 0.987 ± 0.016.
For GGGGGAATTT, the switch fluorescence ratio was 0.993 ± 0.028.
For TTGTTGTGAC, the switch fluorescence ratio was 0.994 ± 0.028.
TCCTGAGTTT was tested, and the switch fluorescence ratio was 0.991 ± 0.047.
Work on AGCGGGGCGC yielded a switch fluorescence ratio of 1.01 ± 0.069.
TAGTGGGGTA was tested, and the switch fluorescence ratio was 0.98 ± 0.032.
Work on AGTTACAGCT yielded a switch fluorescence ratio of 1.03 ± 0.032.
ATAGGTCTCG was tested, and the switch fluorescence ratio was 1 ± 0.031.
GGTCTAGAGT gave a switch fluorescence ratio of 1 ± 0.014.
Sequence TTAAAATGTA has a switch fluorescence ratio of 0.992 ± 0.03.
For CGATTATGGT, the switch fluorescence ratio was 1.003 ± 0.0094.
CCAAAGGGTT showed a switch fluorescence ratio of 1.036 ± 0.0034.
Work on AGTTGTTGGA yielded a switch fluorescence ratio of 1 ± 0.047.
GGGCATTGCT was tested, and the switch fluorescence ratio was 0.9747 ± 0.0069.
Work on TTAATTGAGG yielded a switch fluorescence ratio of 0.993 ± 0.044.
In the case of ATGAAATTGT, the switch fluorescence ratio is reported as 1.02 ± 0.033.
TGACCTGCAC gave a switch fluorescence ratio of 1.51 ± 0.034.
Work on GGGATAGGCC yielded a switch fluorescence ratio of 1.02 ± 0.032.
CCTGGGTGTG showed a switch fluorescence ratio of 1.05 ± 0.11.
Sequence AAGTGGTTAG has a switch fluorescence ratio of 0.98 ± 0.027.
With AATTTCGCTT the switch fluorescence ratio was 1 ± 0.037.
In the case of CCGGGTTTTT, the switch fluorescence ratio is reported as 1.12 ± 0.13.
With AGGTGTTGT the switch fluorescence ratio was 1.03 ± 0.053.
Work on CATTCGGATG yielded a switch fluorescence ratio of 1.01 ± 0.055.
Work on TGAATTTTAG yielded a switch fluorescence ratio of 0.991 ± 0.01.
In the case of TACGAACTTT, the switch fluorescence ratio is reported as 1.31 ± 0.06.
Sequence CGGCGGGGGC has a switch fluorescence ratio of 0.998 ± 0.022.
ATTAAGTTTG showed a switch fluorescence ratio of 1 ± 0.031.
Sequence CAGGGTGAGA has a switch fluorescence ratio of 1.04 ± 0.016.
For ATTGGTTACG, the switch fluorescence ratio was 1.01 ± 0.028.
For ACTAACGGGA, the switch fluorescence ratio was 1.39 ± 0.15.
With AGGGGGAGTG the switch fluorescence ratio was 0.987 ± 0.036.
Sequence GGCGGTATAA has a switch fluorescence ratio of 1.01 ± 0.025.
For GGGGGGCCCA, the switch fluorescence ratio was 1.0208 ± 0.00082.
Work on AGCCCGGAAA yielded a switch fluorescence ratio of 1.023 ± 0.0038.
With TTTTGCGCGC the switch fluorescence ratio was 0.994 ± 0.029.
For CGTTTATCTG, the switch fluorescence ratio was 0.972 ± 0.025.
Sequence ATGCAGGCAC has a switch fluorescence ratio of 1.03 ± 0.024.
With CTCAACACCT the switch fluorescence ratio was 1.35 ± 0.048.
Sequence GGGAGAAGGA has a switch fluorescence ratio of 1.05 ± 0.085.
TTTCATAGCA showed a switch fluorescence ratio of 1.283 ± 0.012.
CGATAGGGGC showed a switch fluorescence ratio of 1.08 ± 0.14.
In the case of TTTGTCTGGA, the switch fluorescence ratio is reported as 0.991 ± 0.032.
Sequence AAATAGGTTG has a switch fluorescence ratio of 1.01 ± 0.021.
With GTAGGAGCCG the switch fluorescence ratio was 0.9987 ± 0.0097.
TTCGTATTGT gave a switch fluorescence ratio of 0.975 ± 0.018.
AGGGTTAAGG was tested, and the switch fluorescence ratio was 1.017 ± 0.0078.
CCACAAAATT showed a switch fluorescence ratio of 1.1 ± 0.18.
With TCGAGATAGC the switch fluorescence ratio was 1.03 ± 0.011.
TCGCAAAATT was tested, and the switch fluorescence ratio was 2.15 ± 1.3.
In the case of AGAGCCTGGG, the switch fluorescence ratio is reported as 1.04 ± 0.02.
With GACCACTTGA the switch fluorescence ratio was 1.01 ± 0.014.
Sequence ATTTTAAGCG has a switch fluorescence ratio of 1.01 ± 0.014.
In the case of TGGTGGTGGG, the switch fluorescence ratio is reported as 1.02 ± 0.018.
With TGTTTGCGAA the switch fluorescence ratio was 1.01 ± 0.045.
With TAGGCTGCTG the switch fluorescence ratio was 0.988 ± 0.021.
In the case of CGGTAGGGTA, the switch fluorescence ratio is reported as 0.991 ± 0.026.
In the case of GCGAGCGCTG, the switch fluorescence ratio is reported as 1.02 ± 0.032.
For GAGACCTATT, the switch fluorescence ratio was 0.993 ± 0.035.
For TTGGTGTACT, the switch fluorescence ratio was 1.01 ± 0.019.
For GTAATACTTG, the switch fluorescence ratio was 1.079 ± 0.01.
TTTCCCGGGT was tested, and the switch fluorescence ratio was 1.0123 ± 0.00051.
In the case of ATCGGAGCCA, the switch fluorescence ratio is reported as 1.02 ± 0.047.
CAGTGTGTGG showed a switch fluorescence ratio of 0.9696 ± 0.0024.
ATGTATTGAG showed a switch fluorescence ratio of 1.008 ± 0.0025.
AGTGCATTCT was tested, and the switch fluorescence ratio was 0.995 ± 0.049.
Work on CCGTGTACGG yielded a switch fluorescence ratio of 0.999 ± 0.054.
GCTGTATATT showed a switch fluorescence ratio of 0.993 ± 0.0017.
GCCCTAAGGC showed a switch fluorescence ratio of 0.979 ± 0.054.
Sequence TTCGACCTAG has a switch fluorescence ratio of 0.986 ± 0.014.
AGGGCAGGG gave a switch fluorescence ratio of 0.975 ± 0.065.
GGTTGATGGG was tested, and the switch fluorescence ratio was 0.999 ± 0.038.
Sequence CAGTACGGGG has a switch fluorescence ratio of 1 ± 0.01.
With CATTTAGCTG the switch fluorescence ratio was 0.9875 ± 0.0055.
Sequence AGATTCCGGT has a switch fluorescence ratio of 0.976 ± 0.016.
For GGGAATTACC, the switch fluorescence ratio was 0.986 ± 0.024.
In the case of AAACAGGGTA, the switch fluorescence ratio is reported as 0.9906 ± 0.0079.
AGTGGGGGGC showed a switch fluorescence ratio of 0.998 ± 0.02.
Work on AACCATACTA yielded a switch fluorescence ratio of 1.19 ± 0.028.
With GCGAGGTCGA the switch fluorescence ratio was 0.991 ± 0.038.
In the case of ACTAGAAGAT, the switch fluorescence ratio is reported as 0.9829 ± 0.0038.
Work on TCCTAAAAGT yielded a switch fluorescence ratio of 1.01 ± 0.021.
With GTTTAACCGG the switch fluorescence ratio was 1.01 ± 0.035.
With TTTCAGACAG the switch fluorescence ratio was 0.9921 ± 0.0014.
Work on GCGGGACCCG yielded a switch fluorescence ratio of 1.01 ± 0.016.
For GCTAGTATG, the switch fluorescence ratio was 0.9954 ± 0.0072.
Sequence CAAGAGGGAG has a switch fluorescence ratio of 0.994 ± 0.018.
AGAGGGAACA showed a switch fluorescence ratio of 1.01 ± 0.02.
With TAACATGGCG the switch fluorescence ratio was 0.959 ± 0.11.
For TGATGAGCTC, the switch fluorescence ratio was 0.983 ± 0.02.
Work on AAAGAGTGCG yielded a switch fluorescence ratio of 1 ± 0.042.
Sequence TTAGTAATAT has a switch fluorescence ratio of 1.17 ± 0.12.
CGCTTGGTTT was tested, and the switch fluorescence ratio was 0.9911 ± 0.0063.
With AAGGAGCAGT the switch fluorescence ratio was 0.985 ± 0.13.
TCTGATGTTT gave a switch fluorescence ratio of 1.01 ± 0.021.
In the case of AGTTGGAGGA, the switch fluorescence ratio is reported as 0.991 ± 0.015.
In the case of ATTTCAAGTT, the switch fluorescence ratio is reported as 0.966 ± 0.011.
Sequence GGACGTAGTT has a switch fluorescence ratio of 0.9578 ± 0.0095.
Work on TGCAGGTTAC yielded a switch fluorescence ratio of 1.12 ± 0.015.
Sequence ATCGTTAGAA has a switch fluorescence ratio of 1.006 ± 0.0025.
Sequence AAAATACAGA has a switch fluorescence ratio of 1.08 ± 0.17.
For CGAGGGGGTG, the switch fluorescence ratio was 1.02 ± 0.055.
AGGAAGACAA gave a switch fluorescence ratio of 1.03 ± 0.028.
Sequence ACGCAACGCC has a switch fluorescence ratio of 1.6634 ± 0.0003.
For ACGGTGCATG, the switch fluorescence ratio was 1.018 ± 0.006.
Work on AAGTCAGGGG yielded a switch fluorescence ratio of 1.05 ± 0.13.
In the case of TTTCGTTTTC, the switch fluorescence ratio is reported as 1.08 ± 0.1.
Work on TTTGCAATGT yielded a switch fluorescence ratio of 1.29 ± 0.1.
TGTTTGGTCA gave a switch fluorescence ratio of 0.976 ± 0.065.
In the case of TAAGTTACAA, the switch fluorescence ratio is reported as 1.09 ± 0.019.
In the case of CGTCTGGGAT, the switch fluorescence ratio is reported as 1.01 ± 0.037.
Sequence TTCTACGGTA has a switch fluorescence ratio of 1.69 ± 0.68.
GCATATTGGG gave a switch fluorescence ratio of 0.9866 ± 0.0042.
GGCTTTGGGT showed a switch fluorescence ratio of 0.991 ± 0.014.
Work on AGGGGCTGTG yielded a switch fluorescence ratio of 0.9991 ± 0.0074.
With GCCGCCCTGG the switch fluorescence ratio was 1.056 ± 0.0076.
In the case of CGGGTATTTT, the switch fluorescence ratio is reported as 0.9878 ± 0.0043.
AAATTTAGGA gave a switch fluorescence ratio of 0.987 ± 0.021.
TCCATGTGCC showed a switch fluorescence ratio of 1.14 ± 0.14.
CGGCAAGAGT was tested, and the switch fluorescence ratio was 1.479 ± 0.0019.
With GAATAATGGG the switch fluorescence ratio was 1.01 ± 0.033.
Sequence CGGGGGTCGG has a switch fluorescence ratio of 0.978 ± 0.012.
In the case of GGGTGGGAGT, the switch fluorescence ratio is reported as 1.026 ± 0.0097.
Sequence GCGTTTATAC has a switch fluorescence ratio of 1.96 ± 0.56.
GAGGGCGGGA was tested, and the switch fluorescence ratio was 1.01 ± 0.047.
In the case of CGTAAAAGAT, the switch fluorescence ratio is reported as 1.04 ± 0.06.
Work on TGTGTTCTAG yielded a switch fluorescence ratio of 1.005 ± 0.0046.
TGACGCGCGT gave a switch fluorescence ratio of 1.014 ± 0.0018.
Work on GTTTTTAGTT yielded a switch fluorescence ratio of 1.012 ± 0.0084.
In the case of TTTTCCAATA, the switch fluorescence ratio is reported as 1.52 ± 0.13.
For GGGGCCACGA, the switch fluorescence ratio was 1.01 ± 0.014.
Sequence GGATTGCGG has a switch fluorescence ratio of 1.008 ± 0.01.
In the case of AGGGTTACGA, the switch fluorescence ratio is reported as 0.976 ± 0.038.
With TCAATTATTT the switch fluorescence ratio was 1 ± 0.023.
For AGGGTTATGA, the switch fluorescence ratio was 0.995 ± 0.021.
Sequence AAGGGGGTTT has a switch fluorescence ratio of 1 ± 0.036.
GCTGGCAGTG was tested, and the switch fluorescence ratio was 0.972 ± 0.029.
With TAAGATGGCT the switch fluorescence ratio was 1.11 ± 0.092.
In the case of AAGAATAAAT, the switch fluorescence ratio is reported as 1 ± 0.029.
TTTATTAATT was tested, and the switch fluorescence ratio was 1 ± 0.029.
Sequence CGGGACGTTT has a switch fluorescence ratio of 1.01 ± 0.013.
In the case of GTTCTTGTGT, the switch fluorescence ratio is reported as 1.01 ± 0.023.
ATTCGCCGGT gave a switch fluorescence ratio of 0.959 ± 0.0066.
For GCTAGATGCG, the switch fluorescence ratio was 0.973 ± 0.03.

From the supplement of paper PMC10126150
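Note: ATP exposure 15 min at 22 °C before imaging.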
